{"source": "the DeepSol protein solubility set"}
{"assay": "soluble on expression in E. coli; label from the status in PepcDB or PDB records"}
{"sequence": "MSKLGKQDVYYFEGLDDILIAMMTTKDAVGTEPAFGEVVRLPIATKLGIKGNGTALEKWASSKMFRRVSRETKHEIALDHVGIPIAVMDEIKGLIAQSGVTFGKNTAREFPYFAFGFIGNIENGGKKAVWYPKTQLSNVIDEEYTTAEDETKIDDVTANFVSTGLTYNNVMYSSFDSNRDSASIELFEKFIAQPVYDEEQWKKLAGPSRGGGSE", "soluble on expression in E. coli": "not soluble"}
{"sequence": "MSKLVGNLIPNTFFITKGSGESDLELHAGSYHMALFDAGISDFNIMTYSSVLPATAHLATMDEIDLPPFGSELKTIMAVSHGYQDEFVSAGVVYAWMYKDENFDEKAGGLVCEVSGRYRIEELESRLIRVINDLHQKTYSQYYLGELNFITEGITIEKRYGTALAGLCFMDFIQPEVQKK", "soluble on expression in E. coli": "not soluble"}
{"sequence": "MSKRKVAIIGSGNIGTDLMIKILRHGQHLEMAVMVGIDPQSDGLARARRMGVATTHEGVIGLMNMPEFADIDIVFDATSAGAHVKNDAALREAKPDIRLIDLTPAAIGPYCVPVVNLEANVDQLNVNMVTCGGQATIPMVAAVSRVARVHYAEIIASIASKSAGPGTRANIDEFTETTSRAIEVVGGAAKGKAIIVLNPAEPPLMMRDTVYVLSDEASQDDIEASINEMAEAVQAYVPGYRLKQRVQFEVIPQDKPVNLPGVGQFSGLKTAVWLEVEGAAHYLPAYAGNLDIMTSSALATAEKMAQSLARKAGEAA", "soluble on expression in E. coli": "soluble"}
{"sequence": "MSKRPVIESEKPAWHDEDDDNMVVAVPKKVKMTMRVELKRTTDEEHGELDSKEYVGRLQEAFRKRHGGTPKWAKAAAGDEEEGSLLKTAAGYLAKDVNLPKTTIHTTLIKDFNIGHRYTRGITVVKFHKTRPVLIVADQGGNVQLFKVSREVKKDRFLQSANFSKFPIDSLEIADKGHSVICSSSRKEYLMQYNMETREVTQLKPPNTVPKQGIRLFAISHDSQFLAIAGHNSHIYVLHATSMEHITTISLPANASEIKFFPSHSREIWIICETGQIVIANIGLPGTKSSQHTFTDDGAVHGTTLAISQHGDYFATGSDTGIVNVYSGNDCRNSTNPRPLFNVSNLVTAVSSIAFNSDAQLMAICSNVKDNHLRLVHVASQTTFKNFPERNGKVTHARCVEFSPNGGYMAVGNDDGRLHVFEIHHFTDY", "soluble on expression in E. coli": "not soluble"}
{"sequence": "MSKTAIIFPGQGAQKVGMAQDLFNNNDQATEILTSAANTLDFDILETMFTDEEGKLGETENTQPALLTHSSALLAALKNLNPDFTMGHSLGEYSSLVAADVLSFEDAVKIVRKRGQLMAQAFPTGVGSMAAVLGLDFDKVDEICKSLSSDDKIIEPANINCPGQIVVSGHKALIDELVEKGKSLGAKRVMPLAVSGPFHSSLMKVIEEDFSSYINQFEWRDAKFPVVQNVNAQGETDKEVIKSNMVKQLYSPVQFINSTEWLIDQGVDHFIEIGPGKVLSGLIKKINRDVKLTSIQTLEDVKGWNEND", "soluble on expression in E. coli": "not soluble"}
{"sequence": "MSKTIIKNIGKIVSGDIKSPVLQADTIVVEDGLIAAIGGEELMKDAGDATIIDAAGSTVTPGLLDTHVHVSGGDYAPRQKTMDFISSALHGGVTTMISAGSPHFPGRPKDAAGTKALAITLSKSYYNARPAGVKVHGGAVILEKGLTEEDFIEMKKEGVWIVGEVGLGTIKNPEDAAPMVEWAHKHGFKVQMHTGGTSIPGSSTVTADDVIKTKPDVVSHINGGPTAISVQEVDRIMDETDFAMEIVQCGNPKIADYVARRAAEKGQLGRVIFGNDAPSGTGLIPLGILRNMCQIASMSDIDPEVAVCMATGNSTAVYGLNTGVIAPGKEADLIIMDTPLGSVAEDAMGAIAAGDIPGISVVLIDGEAVVTKSRNTPPAKRAAKIL", "soluble on expression in E. coli": "soluble"}
{"sequence": "MSKTYHFIGIKGSGMSALALMLHQMGHNVQGSDVDKYYFTQRGLEQAGVTILPFSPNNISEDLEIIAGNAFRPDNNEELAYVIEKGYQFKRYHEFLGDFMRQFTSLGVAGAHGKTSTTGLLAHVLKNITDTSFLIGDGTGRGSANANYFVFEADEYERHFMPYHPEYSIITNIDFDHPDYFTGLEDVFNAFNDYAKQVQKGLFIYGEDPKLHEITSEAPIYYYGFEDSNDFIAKDITRTVNGSDFKVFYNQEEIGQFHVPAYGKHNILNATAVIANLYIMGIDMALVAEHLKTFSGVKRRFTEKIIDDTVIIDDFAHHPTEIIATLDAARQKYPSKEIVAIFQPHTFTRTIALLDEFAHALSQADSVYLAQIYGSAREVDNGEVKVEDLAAKIVKHSDLVTVENVSPLLNHDNAVYVFMGAGDIQLYERSFEELLANLTKNTQ", "soluble on expression in E. coli": "not soluble"}
{"sequence": "MSKVIQKKNHWTSRVHECTVKRGPQGELGLTVLGGAEHGEFPYVGAVAAVEAAGLPGGGEGPRLGEGELLLEVQGVRVSGLPRYDVLGVIDSCKEAVTFKAVRQGGRLNKDLRHFLNQRFQKGSPDHELQQTIRDNLYRHAVPCTTRSPREGEVPGVDYNFLTVKEFLDLEQSGTLLEVGTYEGNYYGTPKPPSQPVSGKVITTDALHSLQSGSKQSTPKRTKSYNDMQNAGIVHAENEEEDDVPEMNSSFTADSGEQEEHTLQETALPPVNSSIIAAPITDPSQKFPQYLPLSAEDNLGPLPENWEMAYTENGEVYFIDHNTKTTSWLDPRCLNKQQKPLEECEDDEGVHTEELDSELELPAGWEKIEDPVYGIYYVDHINRKTQYENPVLEAKRKKQLEQQQQQQQQQQQQQQQQQQQQQTEEWTEDHSALVPPVIPNHPPSNPEPAREVPLQGKPFFTRNPSELKGKFIHTKLRKSSRGFGFTVVGGDEPDEFLQIKSLVLDGPAALDGKMETGDVIVSVNDTCVLGHTHAQVVKIFQSIPIGASVDLELCRGYPLPFDPDDPNTSLVTSVAILDKEPIIVNGQETYDSPASHSSKTGKVNGMKDARPSSPADVASNSSHGYPNDTVSLASSIATQPELITVHIVKGPMGFGFTIADSPGGGGQRVKQIVDSPRCRGLKEGDLIVEVNKKNVQALTHNQVVDMLVECPKGSEVTLLVQRGGLPVPKKSPKSQPLERKDSQNSSQHSVSSHRSLHTASPSHSTQVLPEFPPAEAQAPDQTDSSGQKKPDPFKIWAQSRSMYENRPMSPSPASGLSKGEREREINSTNFGECPIPDYQEQDIFLWRKETGFGFRILGGNEPGEPIYIGHIVPLGAADTDGRLRSGDELICVDGTPVIGKSHQLVVQLMQQAAKQGHVNLTVRRKVVFAVPKTENEVPSPASSHHSSNQPASLTEEKRTPQGSQNSLNTVSSGSGSTSGIGSGGGGGSGVVSTVVQPYDVEIRRGENEGFGFVIVSSVSRPEAGTTFGNACVAMPHKIGRIIEGSPADRCGKLKVGDRILAVNGCSITNKSHSDIVNLIKEAGNTVTLRIIPGDESSNATLLTNAEKIATITTTHTPSQQGTQETRNTTKPKQESQFEFKAPQATQEQDFYTVELERGAKGFGFSLRGGREYNMDLYVLRLAEDGPAERCGKMRIGDEILEINGETTKNMKHSRAIELIKNGGRRVRLFLKRGDGSVPEYAM", "soluble on expression in E. coli": "soluble"}
{"sequence": "MSKVKRKLKNIVRNIMLSETFANTNLVKNMRKNHKEKLEEGRRVLFKEHAKDCLETIKENLDKNNLHFWLDYGTLLGAMREKDFIAHDLDIDLGMFYENQVEEVEKAFKEANIKKVREFTLDGKVVEQTYSYKGLYFDIFYYFKDENLMWTYGFTFKNNKLNKVSYKDKDVSTGFEGMKYFVKKRGLEKIMFKGKEYTVPENPDGYLRENYGPNYMTPIKEWDYVEAPTNQEKLKGGDIVMIEYYNLEHHHHHH", "soluble on expression in E. coli": "soluble"}
{"sequence": "MSKVPSDIEIAQAAKMKPVMELARGLGIQEDEVELYGKYKAKISLDVYRRLKDKPDGKLILVTAITPTPAGEGKTTTSVGLTDALARLGKRVMVCLREPSLGPSFGIKGGAAGGGYAQVVPMEDINLHFTGDIHAVTYAHNLLAAMVDNHLQQGNVLNIDPRTITWRRVIDLNDRALRNIVIGLGGKANGVPRETGFDISVASEVMACLCLASDLMDLKERFSRIVVGYTYDGKPVTAGDLEAQGSMALLMKDAIKPNLVQTLENTPAFIHGGPFANIAHGCNSIIATKTALKLADYVVTEAGFGADLGAEKFYDVKCRYAGFKPDATVIVATVRALKMHGGVPKSDLATENLEALREGFANLEKHIENIGKFGVPAVVAINAFPTDTEAELNLLYELCAKAGAEVALSWAKGGEGGLELARKVLQTLESRPSNFHVLYNLDLSIKDKIAKIATEIYGADGVNYTAEADKAIQRYESLGYGNLPVVMAKTQYSFSDDMTKLGRPRNFTITVREVRLSAGGRLIVPITGAIMTMPGLPKRPAACNIDIDADGVITGLF", "soluble on expression in E. coli": "soluble"}
{"sequence": "MSLAAENILQRQFKAEAPCEKWVTDITEFRAGGQKLYLSPILDLFYGEIVAWETACRPTEELVKRMLNKGLESLAEGEKPLLHSDQGWHYRIKSYQSALADRGLVQSMSRKGNSLDNAVMENFFGHLKEEMYYRRDYRNVEELENAVNEYITYWNQKRIKLSLGGLSPVEYRTEYQKAGEGHHHHHH", "soluble on expression in E. coli": "not soluble"}
{"sequence": "MSLADKRKHRFSVRYWLWRHTSLKRVAFCGRVAASAVASVGVRCSDGRAGFAGLQSCGSVWACPVCNAKIMARRGLELGAAVETWTKHGGRVAFMTFTVRHSRKDSLTAVWDGVASGWRRVTSGKGWTSDQLRHGVEGFVRVVEVTHGRNGWHVHLHVLVFLVGDFGDALALHRSMFGRWERGVLAAGLGTPLARAQDVQQMSAATGLDHLARYLSKAQFQGKIGHELTNSQSKTARSALSTRSTWEVLGDAANGLAKEVGLWFEWEKGSRGRRQIGWSAGLRDRLGLMVEESDDVIAAEEVGSVADTVALITGDGWRRLVGQQKLYECLRSCELGGQAGLARWLQEHGIEHELVEVDEGHHHHHH", "soluble on expression in E. coli": "soluble"}
{"sequence": "MSLAEEISQTTAADTAVTEVRTEDSSQTSSQETAVTETTQSEGTASKQLTTPAVADQTTEPTDNEPISSSDGASSPYQVTDTTEPQQTLTPADSEPQAKADVQQAAAPKKEEINPVTNLEDMSHDTNGTWEVREDGIHSNAIGKGDSFLYSQSSGKNFVYATDVTFKQNSGAAALVFRSNNDSNNKNMYAVNVDIGGHKAKFWRWVDNKDIQLIDERDVVPTADNRYTLKVVAVNNWISYYVNDILMASTGDYVLQKADKGQNTVIPEGHFGLLNWNGDMVFQNTKFALLDDTTAPLIDNITVRSDRGNVEKQGQFFSEEPLHIQYVSNDASQVSLDIAKHNPAATVTVEDKTGRVYTDPSHLPVNVGANYFTVKSTVIDSFGRTVTLTYRINVHRRQNDEVYYNELYRDQYHYSVKDGWANDPNGLVYYNGVYHLFHQFYDDTKWGPMHWAHATSTDLIHWKEEPIAFYPDSNGYMFSGCVVVDEHNSSGLFKTAKGGLVAIITANGNGQRMELAYSEDEGKTWQKYDRIVADWSNDPLQNQDFRDPKVFHWNNQWFMVLAGGPLRIYSSNNLKDWKVESTYPDLHTECPDMYPIVANDGVLKWVLSRGGRFYKVGDFKQVDGKWTFIADDAYKDKDQVMNFGKDSYAAMTYYVHDFGTETRPTIPKLTEVNWMNTWEDYCNLVADTVGQDFNGTFNLNLDLGLINENGQYILTQTPVKAYDSLRDVNTALHFKDVTVDANNTLLKDFKGDSYEIVSHFRPDEKTTKVGFNLRVGNGQATKVIYDLQTETLSIDRSQSGTILSAAFAKVNSQHVTKNADGSIDLHIYVDRASVEVFSKNNTVAGANQIFPNPEAVGASIIVEGGKAQADISVYQMKTIWTDKKDTAKPVAMNTTTAKELALQVGQSQDLQVYLAPASVRQDVEWTISDPSLVRTSQKGNVLHLTAVKKGKLTITAISKENPSLSKTFTISITLNNFKTNLKGLQSVTGKWYVDDETLYDSNTSSNDYYMASQKPGFKEYDYDIDLKYQRGLINLFVASGNIDPSQAYSVQFGDSETVRLYRFAGDTIAEANMGKRINDDQYHHIKVTKTKNSIIISVDGQEVMSHNFDQVDSYFNDAYVGLGLWDGAVEFQNFFVTDHATTPKPDSDPTPQPDAPEALAQERELIDPATGVRVILQKGELASIVRVKVSHIETNDAHTPAVLNAKDYDLFNITPIDKNEKVVAITKPATVLLPIDAGKVVDKVVYLPNTDKEENLPFTIVSLTDSNGKKQSYVRFTAEHFSEYGLVYQAENQTNLKSKEKQDNVAISYPLNLEQEVKVSSISRKYAANKTADVNSVQQTEPSVMSSSPKATLPDTGDHKTDLSQLGVLAMIGSFLVEIAGYFKKRKDEGHHHHHH", "soluble on expression in E. coli": "soluble"}
